According to US20240360242A1 (KISOJI BIOTECHNOLOGY, published 2024):

T1: recombinant human TROP2 extracellular domain (aa 1-274) comprising His tag (human, UniProt P09758 27-274)
T1 construct: Used here for all assays on recombinant human TROP2 (ELISA, immunoblot, SPR, crystal), although only some of them name the catalogue number; also called human recombinant TROP2; recombinant human TROP2 protein; not shown: His tag
T1 sequence: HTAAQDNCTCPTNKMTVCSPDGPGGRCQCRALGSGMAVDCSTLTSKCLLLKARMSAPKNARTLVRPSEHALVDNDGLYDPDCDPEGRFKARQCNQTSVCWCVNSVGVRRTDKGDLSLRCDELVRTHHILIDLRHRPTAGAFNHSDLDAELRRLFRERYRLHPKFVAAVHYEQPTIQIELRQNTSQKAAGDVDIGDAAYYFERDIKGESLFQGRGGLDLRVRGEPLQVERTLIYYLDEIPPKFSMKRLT

T2: HEK-TROP2 Δ27-66 (human, UniProt P09758)
T2 construct: deletion of residues 27-66, transiently expressed on HEK cells
T2 sequence (membrane protein on transfected HEK cells, looked up): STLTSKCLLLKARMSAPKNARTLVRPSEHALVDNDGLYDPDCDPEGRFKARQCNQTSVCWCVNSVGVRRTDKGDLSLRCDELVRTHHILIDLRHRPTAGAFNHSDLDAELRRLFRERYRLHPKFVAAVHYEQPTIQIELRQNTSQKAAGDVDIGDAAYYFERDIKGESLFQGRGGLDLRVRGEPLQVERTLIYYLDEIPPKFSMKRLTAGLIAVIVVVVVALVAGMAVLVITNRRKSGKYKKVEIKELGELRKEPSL

T3: HEK-TROP2 Δ27-146 (human, UniProt P09758)
T3 construct: deletion of residues 27-146, transiently expressed on HEK cells
T3 sequence (membrane protein on transfected HEK cells, looked up): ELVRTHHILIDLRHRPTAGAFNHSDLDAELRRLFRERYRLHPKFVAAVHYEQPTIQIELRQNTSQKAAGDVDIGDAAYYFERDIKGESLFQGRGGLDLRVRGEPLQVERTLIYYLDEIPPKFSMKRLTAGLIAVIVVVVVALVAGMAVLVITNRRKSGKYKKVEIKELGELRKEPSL

T4: human TROP2 cysteine poor domain (CPD), recombinant (human, UniProt P09758 147-274)
T4 sequence: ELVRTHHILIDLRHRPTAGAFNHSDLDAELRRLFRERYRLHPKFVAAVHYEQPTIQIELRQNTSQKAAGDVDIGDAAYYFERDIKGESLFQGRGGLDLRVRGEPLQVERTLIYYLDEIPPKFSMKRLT


Key:
[1] = target: T1, recombinant human TROP2 extracellular …; experiment: competitive ELISA on coated recombinant human TROP2, competitor KD002-His (14285.7 pM per text), anti-His-HRP
Method: The epitope characterization was assessed by competitive ELISA (FIG. 8 and FIG. 9). Microplates were coated with human recombinant TROP2 at 4° C. overnight. After washing, plates were blocked with blocking buffer (PBS+2% BSA), for 1 hour at room temperature. Meanwhile, the dilution for anti-TROP2 VHH sdAbs was prepared with blocking buffer making two different dilutions depending on the tag. For sdAbs with His tag, the antibody was diluted to 28571.4 pM. For sdAbs without tag, antibodies were serially diluted from 2857142.9 pM to 0.29 pM (8 dilutions, 10×). After that, equal volume of the his-tagged sdAbs and serial diluted non-tagged sdAbs were mixed, to make the final concentration of his-tagged sdAbs 14285.7 pM and non-tagged sdAbs from 1428571.4 pM to 0.14 pM. After washing two times, the mixed antibody contents were added into the wells and the plates were incubated for 2 hours at room temperature. The HRP-conjugated anti-6× His was diluted to 1:5000 and added to the wells after washing three times. Any unbound conjugate was removed by washing after 1 hour incubation at room temperature, and the colorimetric reaction was performed by adding the same volume of Supersignal ELISA Pico Luminol/Enhancer and SuperSignal ELISA Pico Stable Peroxide Solution and detected on SpectraMax i3x Microplate Reader. Positive and negative controls were included in each plate.

HEK-TROP2 Δ27-66 = target: T2, HEK-TROP2 Δ27-66; experiment: flow cytometry, 100 nM antibody, transiently transfected HEK cells, APC anti-human Fc
Method in brief: (§1)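 HEK parental cells transiently transfected (lipofectamine) with human TROP2 truncation mutants, harvested 24 h later and Fc-blocked 10 min at RT. Anti-TROP2 sdAbs at 100 nM bound 30 min on ice, then detected with APC anti-human Fc (30 min) and 7-AAD added for viability.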

HEK-TROP2 Δ27-146 = target: T3, HEK-TROP2 Δ27-146; experiment: as above
Method in brief: as §1

[2] = target: T4, human TROP2 cysteine poor domain (CPD), …; experiment: immunoblot, 1 µg/mL antibody, anti-human IgG-HRP
Method: Samples of recombinant proteins of human TROP2 extracellular domain (ECD) (Sino Biological, Cat. no. 10428-H08H) and human TROP2 cysteine poor domain (CPD) were prepared for SDS-PAGE analysis under reducing or non-reducing conditions with NuPAGE™ LDS Sample Buffer (ThermoFisher Cat. no NP0007) with NuPAGE™ Sample Reducing Agent (ThermoFisher Cat. no. NP0004) or without reducing agent. Samples under reducing condition were denatured by heating at 70° C. for 10 minutes. Samples (16 μL) were loaded onto 4-12% Bis-Tris mini-gels (1.5 mm, 15 wells) or 250 ng of samples were loaded onto 14% Tris-glycine mini-gels alongside a BSA standard. […] Gels were stained using GelCode™ staining reagent (Thermo Fisher, Cat. no. 24594).
Proteins were transferred to nitrocellulose membranes using the iBlot™ system (Thermo Fisher, Cat. no. IB301031) according to the manufacturer's instructions. Membranes were blocked by incubation in PBS/0.1% Tween™ 20/5% Milk for 1 hour at room temperature with shaking, followed by incubation with 1 μg/mL of Anti-TROP2 antibodies or the isotype control (IgG1 isotype) in 20 mL of PBS/0.1% Tween™ 20/5% milk. Membranes were washed three times for 10 minutes with PBS/0.1% Tween™ 20. Membranes were incubated with HRP-conjugated goat anti-human IgG antibody (Sigma-Aldrich, AP113P) diluted at 1:10000 in blocking buffer for 1 hour at room temperature with shaking. Membranes were washed three times for 10 minutes with PBS/0.1% Tween™ 20. The signal was visualized using Super Signal™ West Pico PLUS (Thermo Fisher, Cat. no. 34080) according to the manufacturer's instructions. Images were captured using the Azure Biosystem imaging system.

Binder | IC50 (read off the curve) [1] [nM] | binding result (HEK-TROP2 Δ27-66) | binding result (HEK-TROP2 Δ27-146) | binding result [2]
KD001 (antibody, human IgG1, V domains shown, also called anti-TROP2 sdAb KD001) VH: QVQLQESGGGMVHPGGSLRLSCAASGFTFSGSDMSWVRQAPGKGPEWVSYITSGGTTYYPDSVKGRFTISRDNAKNTLYLQMNSLTPDDTALYRCAKARLTDSHYVEDAWGQGTQVTVSS | ~40 | no binding (tested: 100 nM) | no binding (tested: 100 nM) | no binding (tested: 1 µg/mL)
KD002 (antibody, human IgG1, V domains shown, also called anti-TROP2 sdAb KD002) VH: QVQLQESGGGMVQVGGSLRLSCAASGFPFSSADMSWVRQAPGKGPEWVSYINADGSKTYYPDSVKGRFTISRDNAKNTLYLLMNNLKPEDTALYRCARAKLTDTHYVEDYWGQGTQVTVSS | ~60 | no binding (tested: 100 nM) | no binding (tested: 100 nM) | no binding (tested: 1 µg/mL)

The next lines start with the values.

IC50 (read off the curve) [1] [nM] | binding result (HEK-TROP2 Δ27-66) | binding result (HEK-TROP2 Δ27-146) | binding result [2] | Binder
~40 | no binding (tested: 100 nM) | no binding (tested: 100 nM) | no binding (tested: 1 µg/mL) | KD004 (antibody, human IgG1, V domains shown, also called anti-TROP2 sdAb KD004) VH: QVQLQESGGGLVQPGRSLRLSCAASGFTFSGSDMSWVRQAPGKGPEWVSYITGSGTTYYPDSVKGRFTTSRDNAKNMLYLQMNSLKPDDTALYRCAKARLTDSHYVEDAWGQGTQVTVSS
~40 | no binding (tested: 100 nM) | no binding (tested: 100 nM) | no binding (tested: 1 µg/mL) | KD005 (antibody, human IgG1, V domains shown, also called anti-TROP2 sdAb KD005) VH: QVQLQESGGGLVEAGGSLRLSCAASGFTFSGSDMSWVRQAPGKGPEWVSYITSGGTTYYPDSVKGRFTISRDNAKNTLYLQMNSLKPDDTALYRCAKSRLTDSHYVEDAWGQGTQVTVSS
~40 | no binding (tested: 100 nM) | no binding (tested: 100 nM) | no binding (tested: 1 µg/mL) | KD003 (antibody, human IgG1, V domains shown, also called anti-TROP2 sdAb KD003) VH: QVQLQESGGGMVQPGGSLRLSCAASGFTFSNYDMSWVRQAPGKGPEWVSYINAGGSNTDYPDSVKGRFTISRDNAKNMLYLLMNNLKPEDTALYRCARAKLTDTHYVEDYWGQGTQVTVSS
